Source: patent US20210147523A1 (TEIJIN PHARMA, published 2021)

What was measured:
Assay in all cases: flow cytometry
human SPNS2 Q190A mutant = biological target: T1, human SPNS2 Q190A mutant (human, UniProt Q8IVW8 1-549)
T1 sequence: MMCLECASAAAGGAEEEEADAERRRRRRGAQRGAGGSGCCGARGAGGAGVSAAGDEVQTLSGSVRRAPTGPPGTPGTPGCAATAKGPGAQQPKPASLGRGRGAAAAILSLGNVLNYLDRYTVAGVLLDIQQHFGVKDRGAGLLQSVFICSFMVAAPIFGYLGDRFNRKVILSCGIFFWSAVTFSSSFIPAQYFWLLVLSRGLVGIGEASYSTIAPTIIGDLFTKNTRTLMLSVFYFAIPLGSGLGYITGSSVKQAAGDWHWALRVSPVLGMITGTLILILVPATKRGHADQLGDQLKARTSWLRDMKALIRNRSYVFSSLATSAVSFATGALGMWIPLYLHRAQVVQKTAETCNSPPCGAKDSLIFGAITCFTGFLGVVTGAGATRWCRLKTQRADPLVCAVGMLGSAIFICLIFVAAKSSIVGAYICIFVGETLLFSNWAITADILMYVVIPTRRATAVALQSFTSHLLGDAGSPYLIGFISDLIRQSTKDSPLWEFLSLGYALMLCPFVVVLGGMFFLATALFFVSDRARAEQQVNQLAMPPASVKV

human SPNS2 Q131A mutant = biological target: T2, human SPNS2 Q131A mutant (human, UniProt Q8IVW8 1-549)
T2 sequence: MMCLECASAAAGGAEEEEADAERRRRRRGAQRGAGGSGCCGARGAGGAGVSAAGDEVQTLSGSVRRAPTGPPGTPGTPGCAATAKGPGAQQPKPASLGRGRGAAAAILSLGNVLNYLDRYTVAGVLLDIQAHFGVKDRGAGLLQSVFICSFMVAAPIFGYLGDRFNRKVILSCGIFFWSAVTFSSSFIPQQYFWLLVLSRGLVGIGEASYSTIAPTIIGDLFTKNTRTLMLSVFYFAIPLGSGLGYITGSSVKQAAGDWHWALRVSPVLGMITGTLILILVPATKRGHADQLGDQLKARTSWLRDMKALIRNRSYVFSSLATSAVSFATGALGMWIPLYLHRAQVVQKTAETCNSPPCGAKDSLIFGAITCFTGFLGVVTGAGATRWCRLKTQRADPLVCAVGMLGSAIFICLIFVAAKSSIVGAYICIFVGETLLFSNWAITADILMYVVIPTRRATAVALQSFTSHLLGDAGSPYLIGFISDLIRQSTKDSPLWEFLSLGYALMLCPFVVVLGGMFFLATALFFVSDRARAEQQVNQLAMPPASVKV

human SPNS2 Q130A mutant = biological target: T3, human SPNS2 Q130A mutant (human, UniProt Q8IVW8 1-549)
T3 sequence: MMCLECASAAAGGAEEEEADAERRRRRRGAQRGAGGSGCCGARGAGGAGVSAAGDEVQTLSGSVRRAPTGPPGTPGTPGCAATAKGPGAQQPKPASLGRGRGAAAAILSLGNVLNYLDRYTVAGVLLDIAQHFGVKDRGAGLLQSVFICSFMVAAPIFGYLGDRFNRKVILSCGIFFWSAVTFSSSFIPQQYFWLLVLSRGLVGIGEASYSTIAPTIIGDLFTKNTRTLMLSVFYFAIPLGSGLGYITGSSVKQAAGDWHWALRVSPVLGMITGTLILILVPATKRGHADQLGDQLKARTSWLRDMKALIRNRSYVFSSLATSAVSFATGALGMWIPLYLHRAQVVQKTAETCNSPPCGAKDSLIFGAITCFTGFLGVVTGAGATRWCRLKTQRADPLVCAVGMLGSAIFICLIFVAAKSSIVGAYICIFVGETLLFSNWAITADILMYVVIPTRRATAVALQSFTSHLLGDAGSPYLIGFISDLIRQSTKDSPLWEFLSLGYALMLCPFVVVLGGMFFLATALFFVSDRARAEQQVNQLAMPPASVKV

human SPNS2 L196A mutant = biological target: T4, human SPNS2 L196A mutant (human, UniProt Q8IVW8 1-549)
T4 sequence: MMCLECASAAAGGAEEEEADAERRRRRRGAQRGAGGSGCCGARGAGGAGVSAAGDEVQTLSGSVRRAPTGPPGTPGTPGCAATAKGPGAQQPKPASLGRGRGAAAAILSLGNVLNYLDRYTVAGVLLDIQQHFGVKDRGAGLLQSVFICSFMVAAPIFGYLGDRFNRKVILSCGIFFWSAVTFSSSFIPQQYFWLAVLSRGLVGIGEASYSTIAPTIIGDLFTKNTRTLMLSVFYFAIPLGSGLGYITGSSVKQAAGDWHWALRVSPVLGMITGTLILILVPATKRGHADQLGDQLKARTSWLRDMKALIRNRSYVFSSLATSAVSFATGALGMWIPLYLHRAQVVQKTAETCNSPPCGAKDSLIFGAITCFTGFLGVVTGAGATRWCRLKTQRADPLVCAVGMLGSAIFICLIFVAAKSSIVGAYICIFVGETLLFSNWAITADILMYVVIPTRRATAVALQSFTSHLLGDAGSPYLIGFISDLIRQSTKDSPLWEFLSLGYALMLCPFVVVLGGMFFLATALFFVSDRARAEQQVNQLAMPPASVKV

human SPNS2 D128A mutant = biological target: T5, human SPNS2 D128A mutant (human, UniProt Q8IVW8 1-549)
T5 sequence: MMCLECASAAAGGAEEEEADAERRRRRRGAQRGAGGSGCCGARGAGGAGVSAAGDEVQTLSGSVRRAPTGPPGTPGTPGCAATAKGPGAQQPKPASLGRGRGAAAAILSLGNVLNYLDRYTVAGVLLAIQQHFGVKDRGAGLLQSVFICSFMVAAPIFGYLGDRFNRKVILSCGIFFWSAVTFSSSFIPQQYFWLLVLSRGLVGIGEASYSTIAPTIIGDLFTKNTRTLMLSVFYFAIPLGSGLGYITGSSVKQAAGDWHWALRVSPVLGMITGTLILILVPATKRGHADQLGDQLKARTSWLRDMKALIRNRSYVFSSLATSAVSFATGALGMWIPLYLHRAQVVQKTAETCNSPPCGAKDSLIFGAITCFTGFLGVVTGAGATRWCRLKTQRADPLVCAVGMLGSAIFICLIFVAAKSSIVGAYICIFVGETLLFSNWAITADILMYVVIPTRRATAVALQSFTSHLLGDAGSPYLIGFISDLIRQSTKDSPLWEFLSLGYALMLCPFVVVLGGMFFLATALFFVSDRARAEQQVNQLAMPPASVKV

B1: 93-1310F (antibody, IgG2b, V domains shown)
VH: EVQLVETGGGLVQPGSSLKLSCATSGFTFSDTWMSWVRQAPGKGLEWVALIKDKNSNYEANYAESVKGRFTISRDDSKRRVYLQMFTLRDQDTATYYCTSHEDFYYYSSYYFDYWGHGVMVTVSS
VL: DIVLTQSPATLSVTPGESVSLSCRASQGISTSIHWYQQKSNGSPRLLIKYASQSISGIPSRFSGSGSGTDFTLRINRVESEDFSVYYCQQTYSLPLTFGSGTRLEIKR
- binding ratio vs native type (human SPNS2 Q190A mutant): < 0.5 ratio

B2: 96-1403F (antibody, IgG2b, V domains shown)
VH: EVQLVETGGGLVRPGSSLKLSCATSGFTFSDTWMSWVRQAPGKGLEWVALIKDKNSNSEANYAESIKGRFTISRDDSKSRVYLQMNTLRDQDTATYYCTRHEDFYYYSGYYFDYWGQGVMVTVSS
VL: DIVLTQSPPTLSVTPGESVSLSCRASQGISTSIHWYQQRSNESPRLLIKYASQSIAGIPSRFSGSGSGTDFILSINRVESEDFSVYYCQQTYSLPLTFGPGTKLEVKR
- binding ratio vs native type (human SPNS2 Q190A mutant): < 0.5 ratio

B3: 64-0807A (antibody, IgG2b, V domains shown)
VH: EVQVVESGGGLVQPGRSMKLSCAALGFTFRDYYMAWVRQTPTKGLEWVAAISTGGGNTYYRDSVKGRFTISRDNAKSTLYLQMDSLRSDDTATYYCARNPYGNYFDYWGQGVMVTVSS
VL: QFVLSQPNSVSTNLGSTVKLSCKRSTGNIGSNYVHWYQRHEGRSPTTLIYRDDKRPNGVPDRFSGSIDRSSNSALLTINNVQTEDEADYFCQSYSGGMYLFGGGTKLTVL
- binding ratio vs native type (human SPNS2 Q131A mutant): < 0.5 ratio

B4: 50-0704C (antibody, IgG2b, V domains shown)
VH: EVQLVGSGGGLVQPGRSMKLSCEASGFTFSNHYMAWVRQAPTKGLEWVATISTGGGNTYYRDSVKGRFTISRDNARSTLSLQMDSLRSEDTATYYCARQDYSNYMGGFAYWGQGTLVTVSS
VL: QFVLTQPNSVSTNLGSTVKLSCTRSIGNIGNNYVNWYKQYEGRSPTTMIYRDDERPDGVPDRFSGSIDRSSNSALLTINSVQTEDEADYFCQSFSSGIFIFGGGTKLTVL
- binding ratio vs native type (human SPNS2 Q130A mutant): < 0.5 ratio

B5: 49-0703G (antibody, IgG2b, V domains shown)
VH: EVQLVESGGGLVQPGRSMKLSCAASGFTFSNHYMAWVRQAPTKGLEWVASISTGGGNTYYRDSVKGRFTISRDNAKSTLYLQMDSLRSEDTATYYCARQDYSNYMGGFAYWGQGTLVTVSS
VL: QFVLTQPNSVSTNLGSTVKLSCKRSTGNIGNNYVNWYQQYEGRSPTTMIYRDDERPDGVPDRFSGSIDRSSNSALLTINNVQTEDEADYFCQSFSNGMFIFAGGTQLTVL
- binding ratio vs native type (human SPNS2 Q130A mutant): < 0.5 ratio

B6: 18-0211B (antibody, IgG2b, V domains shown)
VH: AVQLVGSGGGLVQPGRSMKLSCEASGFTFSNHYMAWVRQAPTRGLEWVATISTGGGNTYYRDSVKGRFTISRDNTRSTLSLQMDSLRSEDTATYYCTRQDYTNYMGGFAYWGQGTLVTVSS
VL: QFVLTQPNSVSTNLGSTVKLSCTRSIGNIGNNYVNWYKQYEGRSPTTLIYRDDERPDGVPDRFSGSIDRSSNSALLTINSVQTEDGADYFCQSFSSGIFIFGGGTTLTVL
- binding ratio vs native type (human SPNS2 Q130A mutant): < 0.5 ratio

B7: 65-0810G (antibody, IgG2b, V domains shown)
VH: EVHLVESGGGLVQPGRSMKLSCTASGFTFNNYYMAWVRQAPTKGLEWVASISTGGGYTYYRDSVKGRFTISRDNTGNTLYLQMDSLRSEDTATYYCARCWELPYWGQGVMVTVSS
VL: QFVLTQPNSVSTNLGSTVKLSCRRSSGNIGNNYVNWYRQHEGRSPTTMIYRDDTRPDGVPNRFSGSIDRSSNSALLTINNVRPEDEAYYFCQSYSGSIYIFGGGTKLTVL
- binding ratio vs native type (human SPNS2 Q131A mutant): < 0.5 ratio
- binding ratio vs native type (human SPNS2 L196A mutant): < 0.5 ratio

B8: 37-0511F (antibody, IgG2b, V domains shown)
VH: EVHLQQSGAALVRPRASVKLSCKVSGDSISRYYVHFVKQRPGQGLEWIGRIDPEDDTTKYSEKFKNRATLTADASSDTASLILSGLTSDDTATYFCSTLTGLDYWGQGVMVTVSS
VL: DIQMTQSPPVLSTSVGDRVTLRCKPSQNVHSKLDWYQQKHGEAPKLLIYYTHNLQTGIPSRFSGSGSGTDYTLTISSLQPEDVATYYCFQYYSGWTFGGGTKLEMKR
- binding ratio vs native type (human SPNS2 D128A mutant): < 0.5 ratio

B9: 53-0707E (antibody, IgG2b, V domains shown)
VH: EVQLQQSGAELVRPRTSVKLSCKVSGDSITRYYVHFVKQRPGQGLEWIGRIDPEDDTTKYSEKFKKKATLTADASSNTAYLIFSGLTSEDTATYFCSTLTGLDYWGQGVMVTVSS
VL: DIQMTQSPPVLSTSVGDRVTLRCKASQNVHSKLDWYQQKHGEAPKLLIYYTHNLQTGIPSRFSGSGSGTDYTLTISSLQPEDVATYYCFQYYSGWTFGGGTKLEMKR
- binding ratio vs native type (human SPNS2 D128A mutant): < 0.5 ratio
